B1: Formin-binding protein 4, residues 200 to 261; numbered along this chain, Q8N3X1 (parent)
chain: SGWQYDTQCSLAGVGIEMGDWQEVWDENTGCYYYWNTQTNEVTWELPQYLATQVQGLQHYQP

Variants of: B1
Assay: abundance fitness (aPCA) (normalised: wild type 0, dead -1); higher = more abundant; growth selection in yeast, the domain comes from the species named
Details: Homo sapiens

Abundance fitness, by site and new letter:
A12: K -0.146 | C -0.185 | N -0.331 | I -0.363 | P -0.448 | Q -0.131 | G 0.089 | L -0.272 | H -0.217 | V -0.041 | Y -0.025 | S -0.068 | D -0.226 | F -0.465 | M -0.587 | E -0.267 | T -0.389
Y5: I -0.436 | S -0.323 | L -0.425 | W -0.207 | D -0.525 | R -0.181 | V -0.534 | T -0.271 | Q -0.357 | M 0.06 | H -0.052 | F -0.115 | G -0.36 | C -0.592 | P -0.506 | A -0.416 | E -0.218
Q4: L -0.385 | I 0.232 | T 0.288 | S -0.023 | W -0.241 | A -0.447 | P -0.635 | V 0.147 | Y -0.176 | G -0.207 | D 0.182 | N 0.318 | M 0.165 | C -0.051 | H 0.126 | E -0.037 | F 0.146 | R 0.106 | K 0.358
V14: K 0.116 | E -0.03 | D -0.273 | C -0.043 | Q 0.071 | W 0.055 | H -0.09 | M -0.028 | N -0.067 | Y 0.365 | G 0.091 | L -0.071 | P -0.698 | A -0.06 | S -0.163 | T -0.084 | R -0.01
I16: S -0.574 | L -0.137 | K -0.542 | Y -0.334 | Q -0.621 | A -0.332 | D -0.742 | C -0.373 | W -0.671 | G -0.763 | T -0.506 | H -0.8 | M 0.08 | E -0.507 | V 0.027 | R -0.713 | F -0.195 | N -0.676 | P -0.735
S1: Y -0.631 | G 0.116 | V -0.052 | L -0.501 | M 0.503 | E 0.066 | D 0.085 | F -0.457 | P -0.709 | K 0.293 | Q -0.673 | I -0.222 | A 0.057 | W -0.075 | T 0.046 | R -0.236 | H -0.921 | N -0.093 | C -0.068
G2: Y 0.422 | T 0.328 | L -0.022 | C -0.276 | W -0.25 | M 0.19 | I 0.273 | S 0.222 | R -0.097 | Q 0.052 | F 0.071 | H 0.607 | D 0.196 | N 0.405
W3: E -0.376 | K 0.138 | H -0.296 | S 0.127 | P -0.158 | T 0.168 | I -0.217 | Q 0.157 | L -0.003 | C -0.097 | G -0.275 | M 0.046 | D -0.019 | R -0.202 | V 0.054 | A 0.002 | F 0.156 | Y 0.012
G19: Y -0.96 | T -0.782 | D -0.362 | I -0.769 | P -0.897 | F -0.794 | S -0.454 | C -0.918 | M -0.525 | A -0.091 | N -0.676 | H -0.642 | R -0.722 | W -0.992 | E -0.4
G13: Y -0.578 | D -0.087 | T -0.009 | N -0.468 | C -0.103 | L -0.187 | W -0.666 | P -0.082 | R -0.194 | M -0.158 | A -0.237 | S -0.171 | K -0.107 | I -0.471 | E -0.161 | H -0.158 | Q -0.197 | V -0.424 | F -0.129
E17: L -0.577 | M -0.414 | N -0.34 | R -0.103 | Y -0.838 | F -0.263 | V -0.237 | G -0.346 | W -0.403 | Q -0.038 | A -0.183 | D 0.138 | H -0.105 | K 0.063 | S -0.151 | P -0.58 | I -0.373 | C -0.338
D20: A -0.3 | G -0.254 | F 0.15 | E -0.162 | C -0.162
M18: Q -0.69 | I -0.247 | W 0.025 | S -0.586 | T -0.132 | N -0.869 | F -0.278 | E -0.534 | G -0.545 | A -0.685 | L -0.313 | C -0.549 | R -0.643 | Y -0.53 | K -0.618 | P -0.264 | H -0.432
T7: F -0.461 | K -0.036 | E -0.392 | R -0.061 | A 0.017 | S 0.002 | I -0.453 | N 0.124 | V -0.262 | H -0.318 | Y -0.181 | P -0.309 | D -0.314 | C 0.051 | M -0.37 | G -0.06 | L -0.452 | W -0.493 | Q -0.012
C9: D 0.052 | V 0.205 | L 0.049 | H -0.139 | A 0.076 | S 0.065 | T 0.22 | Q 0.017 | G -0.081 | K 0.254 | P -0.365 | Y -0.105 | W -0.377 | I -0.171
G15: Y -0.661 | C -0.182 | H -0.536 | R -0.071 | N -0.21 | M -0.321 | D 0.132 | T -0.099 | E -0.178 | K -0.073 | F -0.583 | I -0.67 | L -0.638 | S -0.11 | A 0.273 | V -0.481 | W -0.727 | Q 0.1 | P -0.03
S10: P -0.216 | A -0.266 | I -0.476 | K -0.457 | C -0.332 | G -0.148 | D -0.472 | N -0.533 | L -0.651 | Y -0.623 | W -1.03 | V -0.701 | R -0.328 | F -0.776 | M -0.521 | T -0.112 | H -0.644 | Q -0.498
Q8: E 0.123 | N -0.02 | P -0.568 | W -0.421 | V -0.191 | Y -0.267 | D -0.515 | L -0.369 | S 0.164 | H 0.041 | C -0.188 | R 0.046 | A 0.29 | K 0.239 | F -0.233 | M -0.097 | I -0.445 | G 0.105 | T 0.187
L11: I -0.061 | P -0.636 | M -0.625 | G -0.678 | V -0.192 | W -0.381 | N -0.79 | H -0.559 | K -0.469 | C -0.429 | F -0.714 | D -0.429 | A -0.731 | E -0.483 | Y -0.57
D6: V -0.829 | C -0.342 | R -0.14 | T -0.139 | I -0.228 | H -0.282 | K 0.009 | E -0.135 | A -0.354 | Q -0.785 | G -0.17 | F -0.492 | S -0.35 | P -0.706 | W -0.555 | Y -0.644

From the Human Domainome abundance scans (Beltran et al. 2025)
